Source: the supplement of paper PMC10126150
± gives the standard deviation of the averaged measurements.

Test system: ATP
Experiment: switch fluorescence ratio, 500 uM ATP over buffer (Cy3 cluster intensity, sum of 5 cycles each) (fold (ratio)); higher = stronger signal-on switching upon ATP binding; sequences stand for … in TCGTCGGCAGCGTCAGATGTGTATAAGAGACAGTTTTTTTTTTTTTTTTTTTTTTTTT…TC
Conditions: aptamer strand: ATP DNA aptamer (quencher-CACCTGGGGGAGTATTGCGGAGGAAGG + anchor), 100 nM annealed; ATP concentration: 500 uM
Outline: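 Values give the fluorescence ratio for each switch-domain sequence, averaged from per-cluster ratios of summed target-cycle to summed buffer-cycle Cy3 intensity. The Cy3-labelled switching-strand clusters sat on a modified Illumina MiSeq flow-cell, were annealed to 100 nM quencher-labelled ATP aptamer, and were imaged in selection buffer, then after 15 min with 500 uM ATP at 22 °C. Five cycles ran with NaOH stripping and re-annealing between them, and clusters outside 100-1000 RFU were excluded.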
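Note: ATP exposure 15 min at 22 °C before imaging.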

Row | Sequence | switch fluorescence ratio
1 | ATGGGGCAGC | 1 ± 0.025
2 | GCGCAAAATT | 0.9973 ± 0.0046
3 | GAATCACTAA | 1 ± 0.059
4 | CGGGGCAAAT | 1.04 ± 0.028
5 | TAGGAGTGCT | 0.9896 ± 0.0066
6 | GGTAATTTTT | 1.01 ± 0.034
7 | AAACCGATGG | 1.046 ± 0.0085
8 | ATTCATTTTG | 1.019 ± 0.0048
9 | ATTAGAGATT | 1.01 ± 0.028
10 | TATTGGGGCG | 0.982 ± 0.017
11 | AGAAAAGTAC | 1.08 ± 0.076
12 | TTGATATATA | 0.974 ± 0.018
13 | GGGAGGAAGC | 0.99 ± 0.0049
14 | ATTGTTGTGT | 0.9992 ± 0.0099
15 | AAGGTACCAG | 1.03 ± 0.036
16 | GACGCGTTTA | 1.07 ± 0.034
17 | ATCGAAGGGG | 0.981 ± 0.065
18 | TACGTGGGTG | 1.05 ± 0.02
19 | CGCTTCATTA | 1.01 ± 0.063
20 | GGGGAGCTAC | 1.17 ± 0.038
21 | AATGAGATTG | 0.989 ± 0.012
22 | TCAACCGGGA | 1.06 ± 0.09
23 | ATTTTAGGCA | 0.996 ± 0.039
24 | TTGATTGGTA | 1 ± 0.041
25 | CGTGAGGGAG | 0.994 ± 0.029

Row | Sequence | switch fluorescence ratio
26 | GCGGGTGACC | 1.02 ± 0.034
27 | AGCAATCGGT | 1.6 ± 0.42
28 | ACTAGGAAAA | 0.997 ± 0.011
29 | TGGAAAACTT | 1.11 ± 0.16
30 | TAATTTATCG | 1.04 ± 0.038
31 | GACATGGCGG | 1.01 ± 0.024
32 | TAGAAACTTT | 1.1 ± 0.14
33 | TATGTTCCAA | 1.01 ± 0.03
34 | TAGCATTGGT | 0.9903 ± 0.0016
35 | TTCGTTTTGA | 1.02 ± 0.057
36 | GTAGGGCGGT | 0.955 ± 0.026
37 | CGGAAACTTT | 1.0088 ± 0.00067
38 | TTGGGGCATA | 1.43 ± 0.77
39 | GGCGGTAGTG | 0.999 ± 0.025
40 | TGTCAGAGGG | 1.01 ± 0.016
41 | GATGTGTGGG | 0.9843 ± 0.0015
42 | TGAAAGTCTC | 1.003 ± 0.0057
43 | TGGAGCCCCG | 0.999 ± 0.015
44 | TCTGGGTAGC | 1 ± 0.061
45 | GGATTATCGG | 0.976 ± 0.023
46 | GAGAAAATCT | 1.01 ± 0.033
47 | ACAGAAGGGA | 1.03 ± 0.068
48 | TAATGTATGA | 0.972 ± 0.04
49 | GTTAGTTGGA | 0.964 ± 0.025
50 | CAGTTAAAGG | 1.01 ± 0.017

Row | Sequence | switch fluorescence ratio
51 | TTGATGCTCT | 1.21 ± 0.28
52 | AGAAGGCTAG | 1.02 ± 0.05
53 | CATTGTGTTT | 0.9707 ± 0.0029
54 | TTTAATTGG | 1 ± 0.048
55 | TCAGCTGGGG | 0.9799 ± 0.0058
56 | TCTTGCGTGG | 0.954 ± 0.01
57 | TTTGTGGGTA | 1.01 ± 0.039
58 | GTGATCATCG | 1.0081 ± 0.00023
59 | TTTAAGCCGG | 1.01 ± 0.032
60 | TTTTTCCGAG | 1.08 ± 0.025
61 | GTGTTCAACG | 0.994 ± 0.04
62 | AACGGGGGGG | 1.05 ± 0.037
63 | TGCGATGTAG | 0.9889 ± 0.005
64 | ATTTTTTGGG | 0.9597 ± 0.0069
65 | CTGGGTGTTC | 1.05 ± 0.035
66 | TTTGCGTAAG | 1.02 ± 0.033
67 | TTAAAAATAG | 0.976 ± 0.027
68 | CAGTCATGGG | 1 ± 0.035
69 | AAAGGGCTGT | 1.01 ± 0.043
70 | GGGCGGGGTA | 1.01 ± 0.027
71 | TTATTTTTGC | 1.01 ± 0.042
72 | CGTGACTAAA | 0.9893 ± 0.0079
73 | CAAGGTGTGT | 1.01 ± 0.043
74 | TGAAAGGCTT | 1.06 ± 0.074
75 | GCCGGCGTCG | 1.03 ± 0.035

Row | Sequence | switch fluorescence ratio
76 | GCTGTTAATG | 0.984 ± 0.006
77 | TGTATTTCGT | 1.01 ± 0.011
78 | TACGTGTTTG | 1.01 ± 0.033
79 | TAACGCATCG | 0.9887 ± 0.0012
80 | CCTGGTACTG | 1.05 ± 0.015
81 | CGTTGGAAGA | 1.02 ± 0.015
82 | GATACGCCAC | 2.11 ± 0.06
83 | CGTGTAGTTG | 1.02 ± 0.026
84 | AAGAGAGGGA | 0.981 ± 0.041
85 | AATAAATTGA | 1.02 ± 0.04
86 | GGGGAGTACT | 1.34 ± 0.44
87 | GATAGTTTAC | 1.01 ± 0.044
88 | TCCGCGACGG | 1.4 ± 0.2
89 | GCTCTGTTGG | 1.01 ± 0.048
90 | GAGAGAGGGC | 0.966 ± 0.073
91 | AATTTTAACT | 1.022 ± 0.0064
92 | TCTTATAGGT | 0.986 ± 0.017
93 | TAGACGGAAG | 1.052 ± 0.00072
94 | TTGGGCCCGT | 1.02 ± 0.075
95 | AGGCTACATA | 1.03 ± 0.019
96 | TTGCTTGTGT | 0.9983 ± 0.0049
97 | TCCCTTTTGG | 1.011 ± 0.0029
98 | GCTTTTGAGG | 1.04 ± 0.012
99 | AATGTGGGCC | 1.024 ± 0.0013
100 | AATTGGGGTC | 0.967 ± 0.031

Row | Sequence | switch fluorescence ratio
101 | TTCAATCCGT | 1.17 ± 0.24
102 | TTCTGTTGAT | 0.9875 ± 0.0092
103 | TGAGCTAAAT | 1.18 ± 0.31
104 | TTCAGCCGAG | 1.02 ± 0.014
105 | CGTCTTACGT | 1.03 ± 0.051
106 | TGAATTTCGA | 0.953 ± 0.025
107 | GATGACCTCA | 0.998 ± 0.093
108 | AGGTTAGCGT | 0.9946 ± 0.0013
109 | TATGATGGGG | 0.963 ± 0.035
110 | AGGTGGTCTG | 0.9885 ± 0.0047
111 | AGGTTCATTG | 0.975 ± 0.021
112 | AGCGGTTAAT | 0.984 ± 0.019
113 | GATTTAGTAA | 0.9759 ± 0.0069
114 | TTGTCCGGGG | 1.006 ± 0.0058
115 | GAATTGGGGA | 1.01 ± 0.029
116 | TCGTGTATTG | 0.984 ± 0.026
117 | AAGCCAAATG | 0.994 ± 0.029
118 | TCTAATGGGT | 0.982 ± 0.017
119 | CAACTTGGGA | 1.05 ± 0.015
120 | GCCTACAGGT | 1.03 ± 0.019
121 | TGAGGTTAGA | 1.03 ± 0.029
122 | CGTGTTGTTT | 1.003 ± 0.01
123 | GCTCCTAGCT | 1.07 ± 0.028
124 | TTTGTGGTGG | 1.01 ± 0.012
125 | AGAGAATACG | 1 ± 0.031

Row | Sequence | switch fluorescence ratio
126 | TAATCTGGCG | 1.026 ± 0.0054
127 | TTAGGGAGTT | 0.9784 ± 0.0062
128 | TCAGCATGTC | 1.27 ± 0.036
129 | GCAGTATTCC | 1.66 ± 0.11
130 | GATAGTTCGT | 1.01 ± 0.021
131 | GGGATATCGA | 0.975 ± 0.021
132 | TAGAGAAGTT | 1 ± 0.015
133 | AGGTCGCGGT | 0.994 ± 0.025
134 | CAGGGTGATG | 0.985 ± 0.024
135 | GGGTTTATTT | 0.982 ± 0.014
136 | ATGTTTTAAC | 1.02 ± 0.039
137 | CGTGGGCAGT | 0.956 ± 0.041
138 | CGGCTTAGTA | 0.988 ± 0.062
139 | TTAAAAATGG | 1.02 ± 0.018
140 | CTTTTTGCAT | 1.02 ± 0.013
141 | CCAGGGGTCC | 2.93 ± 2.4
142 | GAAGCTTTTT | 1 ± 0.047
143 | TTGTAGTTTT | 1.01 ± 0.038
144 | AACGGGGGTG | 1.01 ± 0.045
145 | CTCGCCGATA | 1.03 ± 0.031
146 | TATCGGGTCG | 1.12 ± 0.13
147 | GCGGGTAGCG | 0.983 ± 0.022
148 | TTATTCATCG | 1.01 ± 0.031
149 | AATTTGGGTG | 1.04 ± 0.049
150 | CATTAAGTCT | 1.02 ± 0.036

Row | Sequence | switch fluorescence ratio
151 | GGTGTAGCTT | 1.014 ± 0.0083
152 | TAAGATGATC | 0.988 ± 0.048
153 | TGGATTAGGT | 1.01 ± 0.021
154 | GGGGGTTTGG | 0.991 ± 0.03
155 | ATGCAGATCC | 1.04 ± 0.042
156 | GATGGAGTTT | 1.03 ± 0.011
157 | CTTATCATGT | 0.981 ± 0.034
158 | CAAAGTGGTG | 0.97 ± 0.053
159 | CTGCGAGGAT | 1.01 ± 0.034
160 | TTTAATGTAC | 1.36 ± 0.32
161 | TACCTAGTGC | 1.035 ± 0.0016
162 | TTATTAGAAG | 0.978 ± 0.012
163 | TTTTAGTGCC | 1.01 ± 0.04
164 | CCTATTGTGG | 0.993 ± 0.015
165 | TCAGGGATGG | 0.984 ± 0.042
166 | TGGTGGTAGG | 0.984 ± 0.063
167 | TAAAGGGATT | 0.994 ± 0.032
168 | AGCATGTATC | 1.07 ± 0.012
169 | CATTTGGTCG | 0.955 ± 0.13
170 | GCCGTAGGGC | 0.985 ± 0.011
171 | TTTTTGAAT | 1.01 ± 0.021
172 | TTAGGGATAT | 1.22 ± 0.42
173 | GGTGAGATTA | 0.9804 ± 0.0073
174 | GGTTTTGGCC | 1.02 ± 0.03
175 | TGGGGGACGT | 0.999 ± 0.045

Row | Sequence | switch fluorescence ratio
176 | GGTGAAGGTG | 1.355 ± 0.0092
177 | TGCGGGAGTG | 0.965 ± 0.023
178 | GGGTATTGGA | 0.9828 ± 0.0047
179 | TTATGATTCA | 0.973 ± 0.022
180 | TATGGGGCAA | 1.091 ± 0.0015
181 | ATTAAAGTTT | 1.04 ± 0.034
182 | CAGAACTCTT | 0.963 ± 0.034
183 | ATCTTAAGAT | 0.984 ± 0.066
184 | ATTTAGCCTA | 0.9758 ± 0.0079
185 | CGACTTTTAT | 0.9818 ± 0.0046
186 | TGGGCTTGTT | 0.999 ± 0.036
187 | AGCGCTGGCG | 1 ± 0.049
188 | AGCTGATACT | 2 ± 0.061
189 | TCTGGACTCG | 1 ± 0.025
190 | TCCTTGGAGG | 0.989 ± 0.028
191 | ACTAGGTGCG | 1.06 ± 0.045
192 | ATGGTTGGTC | 0.97 ± 0.023
193 | TAAAATACTT | 1.11 ± 0.16
194 | TCAGGTATGT | 1.01 ± 0.038
195 | GATACATGCT | 0.979 ± 0.036
196 | TAAGGCGAGT | 1.03 ± 0.052
197 | TTTATTATTT | 0.989 ± 0.024
198 | TATTATTGCG | 0.988 ± 0.011
199 | GTTATAGTTT | 0.985 ± 0.014
200 | GAGATATTGG | 0.99 ± 0.013
